Measured values taken from the supplement of paper PMC10567573.

B1: FUT8 (parent)
chain: NWRYATGGWETVFRPVSETCTDRS

Variants of: B1
Test: protein stability index of a GFP-peptide fusion (GPS, HEK-293T) (PSI 1-6); higher = more stable
Conditions: c terminus: a fixed tail appended
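Further: lentivirally expressed fusions sorted by FACS into six bins by GFP to DsRed ratio, PSI derived from sequencing read proportions per bin multiplied by bin number.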

Variant | protein stability index
C20T | 1.04
C20H | 4.01
C20W | 3.63
C20L | 1.44
C20Y | 2.24
C20Q | 1.84
C20A | 3.39
C20I | 1.63
C20F | 1.84
C20P | 1.81
C20S | 1.75
C20V | 1.88
C20N | 2.6
C20M | 2.33
C20D | 2.3
R23Y | 2.49
R23E | 1.75
R23S | 1.56
R23N | 1.44
R23V | 2.89
R23G | 1.6

Variant | protein stability index
R23D | 2.41
R23H | 3.12
R23W | 1.91
R23T | 2.02
R23I | 1.21
R23M | 2.34
R23F | 1.77
R23P | 2.08
R23A | 2.36
R23K | 1.92
R23L | 3.42
T21H | 1.56
T21F | 2.31
T21L | 2.43
T21G | 1.47
T21K | 2.49
T21P | 1.26
T21A | 1.39
T21Y | 1.84
T21M | 3.38
T21D | 1.34

Variant | protein stability index
T21V | 1.9
T21E | 1.55
T21R | 2.8
D22P | 1.48
D22T | 3.48
D22H | 1.45
D22M | 1.9
D22N | 1.24
D22Y | 2.07
D22W | 1.25
D22C | 1.93
D22R | 1.84
D22Q | 1.69
D22V | 1.54
D22E | 2.33
D22L | 1.7
D22S | 2.43
D22K | 2.12
D22I | 2.98
E18K | 2.27
E18Q | 1.54

Variant | protein stability index
E18W | 2.45
E18P | 2.06
E18R | 1.8
E18H | 1.51
E18F | 2.36
E18G | 1.41
E18Y | 2.18
E18V | 2.76
E18N | 1.75
E18T | 2.15
E18I | 2.05
E18L | 1.97
E18M | 1.4
S24M | 1.96
S24Y | 1.86
S24Q | 2.72
S24L | 2.3
S24V | 2.67
S24R | 1.47
S24K | 2.6
